Consider one substance from paper doi:10.1101/2020.12.03.410779.

For this assay, the target named is human Retromer complex (Vps35-Vps29-Vps26A) (human) (UniProt Q96QK1). Briefly: ITC.

Usually Kd stands for the free concentration of one partner at which half of the binding sites on the other are occupied at equilibrium, for simple one-to-one binding. Low readings indicate tighter binding, high ones weaker binding. In turn, “TBC domain of human TBC1D5 (from UniProt Q92609 1-795) (domain or fragment)” showed a Kd of 370 nM.
